This is an account of results in patent US20190113512A1.

To fix the notation:
B1: rcSso7d.H7.1 (designed binder)
chain: MATVKFTYQGEEKQVDISKIKYVYRWGQRIWFRYDEGGGAIGRGRVSEKDAPKELLQMLEKQ
B2: rcSso7d.H1BA.6 (designed binder)
chain: MATVKFTYQGEEKQVDISKIKDVWRWGQWIDFIYDEGGGADGWGRVSEKDAPKELLQMLEKQ
B3: rcSso7d.H4.3 (designed binder)
chain: MATVKFTYQGEEKQVDISKIKHVWRRGQNIYFRYDEGGGAWGAGAVSEKDAPKELLQMLEKQ
B4: rcSso7d.H4.8 (designed binder)
chain: MATVKFTYQGEEKQVDISKIKDVWRHGQHIIFSYDEGGGAYGAGHVSEKDAPKELLQMLEKQ
B5: rcSso7d.H4.5 (designed binder)
chain: MATVKFTYQGEEKQVDISKIKGVYRHGQSIWFRYDEGGGAWGWGIVSEKDAPKELLQMLEKQ
B6: rcSso7d.H4.7 (designed binder)
chain: MATVKFTYQGEEKQVDISKIKYVWRHGQHIAFRYDEGGGAHGWGSVSEKDAPKELLQMLEKQ
B7: rcSso7d.Rv1656 (yeast-surface displayed) (designed binder)
chain: MATVKFTYQGEEKQVDISKIKWVRRYGQYIGFSYDEGGGAWGKGYVSEKDAPKELLQMLEKQ
B8: rcSso7d.H1BA.5 (designed binder)
chain: MATVKFTYQGEEKQVDISKIKYVRRYGQYIGFIYDEGGGAWGKGYVSEKDAPKELLQMLEKQ
B9: rcSso7d.H1BA.4 (designed binder)
chain: MATVKFTYQGEEKQVDISKIKNVYRWGQYIIFSYDEGGGAYGWGWVSEKDAPKELLQMLEKQ
B10: rcSso7d.H6BA.1 (designed binder)
chain: MATVKFTYQGEEKQVDISKIKWVYRYGQYIIFGYDEGGGAKGNGYVSEKDAPKELLQMLEKQ
B11: rcSso7d.H1BA.1 (designed binder)
chain: MATVKFTYQGEEKQVDISKIKHVRRWGQYIIFAYDEGGGAYGGGWVSEKDAPKELLQMLEKQ
B12: rcSso7d.H6BA.2 (designed binder)
chain: MATVKFTYQGEEKQVDISKIKWVYRWGQYIIFAYDEGGGAAGKGSVSEKDAPKELLQMLEKQ
B13: rcSso7d.H4.6 (designed binder)
chain: MATVKFTYQGEEKQVDISKIKSVHRYGQKIYFDYDEGGGAIGKGHVSEKDAPKELLQMLEKQ
B14: rcSso7d.H6BA.3 (designed binder)
chain: MATVKFTYQGEEKQVDISKIKRVIRAGQSIIFSYDEGGGAIGHGWVSEKDAPKELLQMLEKQ
B15: rcSso7d.H2BA.1 (designed binder)
chain: MATVKFTYQGEEKQVDISKIKRVIRYGQAIAFAYDEGGGARGYGWVSEKDAPKELLQMLEKQ
B16: rcSso7d.H4.4 (designed binder)
chain: MATVKFTYQGEEKQVDISKIKSVKRNGQSIDFDYDEGGGAAGEGKVSEKDAPKELLQMLEKQ
B17: rcSso7d.H4.9 (designed binder)
chain: MATVKFTYQGEEKQVDISKIKYVKRIGQYISFNYDEGGGAHGHGIVSEKDAPKELLQMLEKQ

Where “and” joins values, the source holds several entries; their conditions need not be identical. Identical values can stand only once.

The target in one experiment is fluorescent reagents used to detect binding activity.
B1 gave a Secondary control signal of 1.8%.
As for B2, the Secondary control signal worked out at 0.5%.
Still for that read-out and setting: under B3 stands 0%; under B4, 0%; under B5, 0.6%.
B6 returned a Secondary control signal of 0%.
Same read-out and setting: under B7 stands 0.6% and 2.3% and 0%; under B8, 0.9%; under B9, 0%.
Still for that read-out and setting: under B10 stands 1.5%; under B11, 6%.
Same read-out and setting: under B12 stands 7.3%.
The molecule B13 gave a Secondary control signal of 0%.
Regarding B14, the Secondary control signal is 1.7%.
Still for that read-out and setting: with B15 the figure was 3.2%; with B16, 0%; with B17, 0%.

For another experiment the target is unchanged. The source holds these as a separate data set.
With B7, the Quadrant % Q1 stood at 0.1%.
